# Laboratory results taken from CN111363035A (DONGGUAN PENGZHI BIOTECHNOLOGY CO LTD, dated 2020).
# B1: Anti-FABP 8F3 重组抗体 (抗人心型脂肪酸结合蛋白的重组抗体) (antibody, V domains shown)
# VH: QVQLQQPGADLVRPGASVKLSCKTSGYSFTGYFMNWVKQRPGQGLEWIGMIHASDSSTRLNQKFKDKATLTVDKSSTTVYMQFSSPTSEDSAVYYCARGIRDFAYWGQGTLVTVSA
# VL: DIVMTQSQKFMSTSVGDRVSITCKASNNIASSVAWYQLRPGQSPKALIYSPTYRYSGIPDRFTGSGSGTDFTLTISNVQSEDLAEYFCQQYNSYPLSFGSGTKLEIK
# Target: T1, 重组FABP蛋白(自产，140618) (human, UniProt P05413 1-133, limits assumed)
# T1 construct: The coated protein is only called 'recombinant FABP protein'; also called 心型脂肪酸结合蛋白; H-FABP
# T1 sequence (P05413 whole entry): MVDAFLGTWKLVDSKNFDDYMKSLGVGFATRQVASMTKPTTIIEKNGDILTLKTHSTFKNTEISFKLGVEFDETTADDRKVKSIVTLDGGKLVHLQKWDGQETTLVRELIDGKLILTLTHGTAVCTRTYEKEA
# Assay: indirect ELISA, recombinant FABP protein coated, CHO transient supernatant, goat anti-mouse IgG-HRP
binder,measurement,value
B1,OD450 (reference 630 nm) at 1000-fold dilution of the supernatant,> 1 OD
